In article PMC2901266:

Experiments:
[1] = molecular target: ToLCKeV MBP-AC1 fusion protein (replication initiator protein, Rep) (Tomato leaf curl Kerala virus-[India:Kerala II:2005])
[2] = molecular target: ToLCKeV MBP-AC3 fusion protein (Tomato leaf curl Kerala virus-[India:Kerala II:2005]); assay: sucrose gradient ultracentrifugation + SEC; 10-40% (w/v) sucrose step gradient, 25 mM Tris (pH 8.0), 250 mM NaCl, 2 mM sodium bisulphite, 0.05% Triton X-100, 35,000 rpm 20 h 4°C, against mass markers; gel filtration on Superdex 200 5/150

“ToLCKeV MBP-AC3 fusion protein (natural protein)” gave an ATPase activity of AC1 (Rep), release of Pi from [gamma-32P]ATP, with varying MBP-AC3 (increase at 0.02-0.2 pM, reduced at higher AC3: bell shaped curve); increase over Rep alone set as 100% [1] of 80% and a stoichiometry N [2] of 12 to 14 mer.
